Results as given in patent US20230395193A1 (priority 2020, published 2023).

B1: E-Q8WY22 (protein, UniProt Q8WY22 1-251, looked up)
BRI3-binding protein: MGARASGGPLARAGLLLLLLLLLLLGLLAPGAQGARGRGGAEKNSYRRTVNTFSQSVSSLFGEDNVRAAQKFLARLTERFVLGVDMFVETLWKVWTELLDVLGLDVSNLSQYFSPASVSSSPARALLLVGVVLLAYWFLSLTLGFTFSVLHVVFGRFFWIVRVVLFSMSCVYILHKYEGEPENAVLPLCFVVAVYFMTGPMGFYWRSSPSGPSNPSNPSVEEKLEHLEKQVRLLNIRLNRVLESLDRSKDK
modifications: prey of SARS-CoV-2 E
B2: E-Q6UX04 (protein, UniProt Q6UX04 2-472, looked up)
Spliceosome-associated …: SNIYIQEPPTNGKVLLKTTAGDIDIELWSKEAPKACRNFIQLCLEAYYDNTIFHRVVPGFIVQGGDPTGTGSGGESIYGAPFKDEFHSRLRFNRRGLVAMANAGSHDNGSQFFFTLGRADELNNKHTIFGKVTGDTVYNMLRLSEVDIDDDERPHNPHKIKSCEVLFNPFDDIIPREIKRLKKEKPEEEVKKLKPKGTKNFSLLSFGEEAEEEEEEVNRVSQSMKGKSKSSHDLLKDDPHLSSVPVVESEKGDAPDLVDDGEDESAEHDEYIDGDEKNLMRERIAKKLKKDTSANVKSAGEGEVEKKSVSRSEELRKEARQLKRELLAAKQKKVENAAKQAEKRSEEEEAPPDGAVAEYRREKQKYEALRKQQSKKGTSREDQTLALLNQFKSKLTQAIAETPENDIPETEVEDDEGWMSHVLQFEDKSRKVKDASMQDSDTFEIYDPRNPVNKRRREESKKLMREKKERR
modifications: interactor of E protein
B3: E-Q9BTV4 (protein, UniProt Q9BTV4 2-400, looked up)
Transmembrane protein 43: AANYSSTSTRREHVKVKTSSQPGFLERLSETSGGMFVGLMAFLLSFYLIFTNEGRALKTATSLAEGLSLVVSPDSIHSVAPENEGRLVHIIGALRTSKLLSDPNYGVHLPAVKLRRHVEMYQWVETEESREYTEDGQVKKETRYSYNTEWRSEIINSKNFDREIGHKNPSAMAVESFMATAPFVQIGRFFLSSGLIDKVDNFKSLSLSKLEDPHVDIIRRGDFFYHSENPKYPEVGDLRVSFSYAGLSGDDPDLGPAHVVTVIARQRGDQLVPFSTKSGDTLLLLHHGDFSAEEVFHRELRSNSMKTWGLRAAGWMAMFMGLNLMTRILYTLVDWFPVFRDLVNIGLKAFAFCVATSLTLLTVAAGWLFYRPLWALLIAGLALVPILVARTRVPAKKLE
B4: E-Q9NPI6 (protein, UniProt Q9NPI6 1-582, looked up)
mRNA-decapping enzyme 1A: MEALSRAGQEMSLAALKQHDPYITSIADLTGQVALYTFCPKANQWEKTDIEGTLFVYRRSASPYHGFTIVNRLNMHNLVEPVNKDLEFQLHEPFLLYRNASLSIYSIWFYDKNDCHRIAKLMADVVEEETRRSQQAARDKQSPSQANGCSDHRPIDILEMLSRAKDEYERNQMGDSNISSPGLQPSTQLSNLGSTETLEEMPSGSQDKSAPSGHKHLTVEELFGTSLPKEQPAVVGLDSEEMERLPGDASQKEPNSFLPFPFEQLGGAPQSETLGVPSAAHHSVQPEITTPVLITPASITQSNEKHAPTYTIPLSPVLSPTLPAEAPTAQVPPSLPRNSTMMQAVKTTPRQRSPLLNQPVPELSHASLIANQSPFRAPLNVTNTAGTSLPSVDLLQKLRLTPQHDQIQTQPLGKGAMVASFSPAAGQLATPESFIEPPSKTAAARVAASASLSNMVLAPLQSMQQNQDPEVFVQPKVLSSAIPVAGAPLVTATTTAVSSVLLAPSVFQQTVTRSSDLERKASSPSPLTIGTPESQRKPSIILSKSQLQDTLIHLIKNDSSFLSTLHEVYLQVLTKNKDNHNL
modifications: interactor of SARS-CoV-2 E
B5: M-Q4KMQ2 (protein, UniProt Q4KMQ2 1-910, looked up)
Anoctamin-6: MKKMSRNVLLQMEEEEDDDDGDIVLENLGQTIVPDLGSLESQHDFRTPEFEEFNGKPDSLFFNDGQRRIDFVLVYEDESRKETNKKGTNEKQRRKRQAYESNLICHGLQLEATRSVLDDKLVFVKVHAPWEVLCTYAEIMHIKLPLKPNDLKNRSSAFGTLNWFTKVLSVDESIIKPEQEFFTAPFEKNRMNDFYIVDRDAFFNPATRSRIVYFILSRVKYQVINNVSKFGINRLVNSGIYKAAFPLHDCKFRRQSEDPSCPNERYLLYREWAHPRSIYKKQPLDLIRKYYGEKIGIYFAWLGYYTQMLLLAAVVGVACFLYGYLNQDNCTWSKEVCHPDIGGKIIMCPQCDRLCPFWKLNITCESSKKLCIFDSFGTLVFAVFMGVWVTLFLEFWKRRQAELEYEWDTVELQQEEQARPEYEARCTHVVINEITQEEERIPFTAWGKCIRITLCASAVFFWILLIIASVIGIIVYRLSVFIVFSAKLPKNINGTDPIQKYLTPQTATSITASIISFIIIMILNTIYEKVAIMITNFELPRTQTDYENSLTMKMFLFQFVNYYSSCFYIAFFKGKFVGYPGDPVYWLGKYRNEECDPGGCLLELTTQLTIIMGGKAIWNNIQEVLLPWIMNLIGRFHRVSGSEKITPRWEQDYHLQPMGKLGLFYEYLEMIIQFGFVTLFVASFPLAPLLALVNNILEIRVDAWKLTTQFRRLVPEKAQDIGAWQPIMQGIAILAVVTNAMIIAFTSDMIPRLVYYWSFSVPPYGDHTSYTMEGYINNTLSIFKVADFKNKSKGNPYSDLGNHTTCRYRDFRYPPGHPQEYKHNIYYWHVIAAKLAFIIVMEHVIYSVKFFISYAIPDVSKRTKSKIQREKYLTQKLLHENHLKDMTKNMGVIAERMIEAVDNNLRPKSE
B6: M-Q5BJH7 (protein, UniProt Q5BJH7 1-314, looked up)
Protein YIF1B: MHPAGLAAAAAGTPRLRKWPSKRRIPVSQPGMADPHQLFDDTSSAQSRGYGAQRAPGGLSYPAASPTPHAAFLADPVSNMAMAYGSSLAAQGKELVDKNIDRFIPITKLKYYFAVDTMYVGRKLGLLFFPYLHQDWEVQYQQDTPVAPRFDVNAPDLYIPAMAFITYVLVAGLALGTQDRFSPDLLGLQASSALAWLTLEVLAILLSLYLVTVNTDLTTIDLVAFLGYKYVGMIGGVLMGLLFGKIGYYLVLGWCCVAIFVFMIRTLRLKILADAAAEGVPVRGARNQLRMYLTMAVAAAQPMLMYWLTFHLVR
B7: E-Q8IWA5 (protein, UniProt Q8IWA5 1-706, looked up)
Choline transporter-like …: MGDERPHYYGKHGTPQKYDPTFKGPIYNRGCTDIICCVFLLLAIVGYVAVGIIAWTHGDPRKVIYPTDSRGEFCGQKGTKNENKPYLFYFNIVKCASPLVLLEFQCPTPQICVEKCPDRYLTYLNARSSRDFEYYKQFCVPGFKNNKGVAEVLQDGDCPAVLIPSKPLARRCFPAIHAYKGVLMVGNETTYEDGHGSRKNITDLVEGAKKANGVLEARQLAMRIFEDYTVSWYWIIIGLVIAMAMSLLFIILLRFLAGIMVWVMIIMVILVLGYGIFHCYMEYSRLRGEAGSDVSLVDLGFQTDFRVYLHLRQTWLAFMIILSILEVIIILLLIFLRKRILIAIALIKEASRAVGYVMCSLLYPLVTFFLLCLCIAYWASTAVFLSTSNEAVYKIFDDSPCPFTAKTCNPETFPSSNESRQCPNARCQFAFYGGESGYHRALLGLQIFNAFMFFWLANFVLALGQVTLAGAFASYYWALRKPDDLPAFPLFSAFGRALRYHTGSLAFGALILAIVQIIRVILEYLDQRLKAAENKFAKCLMTCLKCCFWCLEKFIKFLNRNAYIMIAIYGTNFCTSARNAFFLLMRNIIRVAVLDKVTDFLFLLGKLLIVGSVGILAFFFFTHRIRIVQDTAPPLNYYWVPILTVIVGSYLIAHGFFSVYGMCVDTLFLCFLEDLERNDGSAERPYFMSSTLKKLLNKTNKKAAES
B8: M-Q5JRX3 (protein, UniProt Q5JRX3 29-1037, looked up)
Presequence protease, …: NSNRACERALQYKLGDKIHGFTVNQVTSVPELFLTAVKLTHDDTGARYLHLAREDTNNLFSVQFRTTPMDSTGVPHILEHTVLCGSQKYPCRDPFFKMLNRSLSTFMNAFTASDYTLYPFSTQNPKDFQNLLSVYLDATFFPCLRELDFWQEGWRLEHENPSDPQTPLVFKGVVFNEMKGAFTDNERIFSQHLQNRLLPDHTYSVVSGGDPLCIPELTWEQLKQFHATHYHPSNARFFTYGNFPLEQHLKQIHEEALSKFQKIEPSTVVPAQTPWDKPREFQITCGPDSFATDPSKQTTISVSFLLPDITDTFEAFTLSLLSSLLTSGPNSPFYKALIESGLGTDFSPDVGYNGYTREAYFSVGLQGIAEKDIETVRSLIDRTIDEVVEKGFEDDRIEALLHKIEIQMKHQSTSFGLMLTSYIASCWNHDGDPVELLKLGNQLAKFRQCLQENPKFLQEKVKQYFKNNQHKLTLSMRPDDKYHEKQAQVEATKLKQKVEALSPGDRQQIYEKGLELRSQQSKPQDASCLPALKVSDIEPTIPVTELDVVLTAGDIPVQYCAQPTNGMVYFRAFSSLNTLPEELRPYVPLFCSVLTKLGCGLLDYREQAQQIELKTGGMSASPHVLPDDSHMDTYEQGVLFSSLCLDRNLPDMMQLWSEIFNNPCFEEEEHFKVLVKMTAQELANGIPDSGHLYASIRAGRTLTPAGDLQETFSGMDQVRLMKRIAEMTDIKPILRKLPRIKKHLLNGDNMRCSVNATPQQMPQTEKAVEDFLRSIGRSKKERRPVRPHTVEKPVPSSSGGDAHVPHGSQVIRKLVMEPTFKPWQMKTHFLMPFPVNYVGECIRTVPYTDPDHASLKILARLMTAKFLHTEIREKGGAYGGGAKLSHNGIFTLYSYRDPNTIETLQSFGKAVDWAKSGKFTQQDIDEAKLSVFSTVDAPVAPSDKGMDHFLYGLSDEMKQAHREQLFAVSHDKLLAVSDRYLGTGKSTHGLAILGPENPKIAKDPSWIIQ
modifications: interactor of viral M protein

System: SARS-CoV-1, MERS-CoV and SARS-CoV-2 proteins in HEK293T cells
Parameters: species or system human

| Molecule | MIST_MERS | MIST_SARS1 | MIST_SARS2 | Saint_MERS | Saint_SARS1 | Saint_SARS2 |
| --- | --- | --- | --- | --- | --- | --- |
| B1 | 0.9912 | 0 | 0 | 1 | 0 | 0 |
| B2 | 0.03892 | 0.6535 | 0.8931 | 0 | 0.98 | 0.66 |
| B3 | 0.8753 | 0 | 0 | 1 | 0 | 0 |
| B4 | 0.9797 | 0 | 0 | 1 | 0 | 0 |
| B5 | 0 | 0.864 | 0.9939 | 0 | 0.32 | 1 |
| B6 | 0.3712 | 0.9893 | 0.5979 | 0 | 0.97 | 1 |
| B7 | 0 | 0 | 0.9503 | 0 | 0 | 0.98 |
| B8 | 0 | 0.001111 | 0.9523 | 0 | 0 | 1 |
